The text below walks through data of US20250270314A1 (TAVOTEK BIOTECH SUZHOU, published 2025).

Where a chain is given by its changes, count along the chain named.

First the molecules themselves.
T1: human CDH17 on AGS gastric cancer cells and AsPC-1 pancreatic cancer cells (human, UniProt Q12864 23-832)
T1 construct: Native CDH17 on the surface of cancer cell lines; also called CDH17 expressing AGS cells; CDH17 expressing AsPC-1 pancreatic cancer cells
T1 sequence: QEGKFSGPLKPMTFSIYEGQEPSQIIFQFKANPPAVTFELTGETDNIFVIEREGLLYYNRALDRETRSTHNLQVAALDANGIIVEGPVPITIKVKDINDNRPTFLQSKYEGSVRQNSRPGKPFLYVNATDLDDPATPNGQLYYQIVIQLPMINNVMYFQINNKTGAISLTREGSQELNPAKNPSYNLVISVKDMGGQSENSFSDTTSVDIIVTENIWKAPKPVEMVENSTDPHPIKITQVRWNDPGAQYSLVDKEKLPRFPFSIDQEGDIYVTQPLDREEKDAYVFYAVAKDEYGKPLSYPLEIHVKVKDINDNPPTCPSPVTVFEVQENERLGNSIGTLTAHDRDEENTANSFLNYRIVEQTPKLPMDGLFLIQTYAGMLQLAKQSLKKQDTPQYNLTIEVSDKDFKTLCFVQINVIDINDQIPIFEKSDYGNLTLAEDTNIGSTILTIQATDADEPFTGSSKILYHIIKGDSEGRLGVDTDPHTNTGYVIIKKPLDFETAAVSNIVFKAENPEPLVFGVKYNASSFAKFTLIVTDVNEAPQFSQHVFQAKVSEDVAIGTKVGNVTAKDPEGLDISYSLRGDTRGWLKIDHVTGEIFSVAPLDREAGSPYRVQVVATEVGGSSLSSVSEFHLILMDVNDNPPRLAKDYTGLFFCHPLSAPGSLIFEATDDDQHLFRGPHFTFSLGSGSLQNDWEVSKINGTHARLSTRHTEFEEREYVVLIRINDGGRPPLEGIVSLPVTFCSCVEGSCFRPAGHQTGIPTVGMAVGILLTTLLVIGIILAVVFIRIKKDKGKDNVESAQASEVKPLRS

T2: recombinant human CDH17 (R&D systems) (human, UniProt Q12864 23-787)
T2 construct: Bought recombinant protein coated on the ELISA plate; also called human Cadherin-17
T2 sequence: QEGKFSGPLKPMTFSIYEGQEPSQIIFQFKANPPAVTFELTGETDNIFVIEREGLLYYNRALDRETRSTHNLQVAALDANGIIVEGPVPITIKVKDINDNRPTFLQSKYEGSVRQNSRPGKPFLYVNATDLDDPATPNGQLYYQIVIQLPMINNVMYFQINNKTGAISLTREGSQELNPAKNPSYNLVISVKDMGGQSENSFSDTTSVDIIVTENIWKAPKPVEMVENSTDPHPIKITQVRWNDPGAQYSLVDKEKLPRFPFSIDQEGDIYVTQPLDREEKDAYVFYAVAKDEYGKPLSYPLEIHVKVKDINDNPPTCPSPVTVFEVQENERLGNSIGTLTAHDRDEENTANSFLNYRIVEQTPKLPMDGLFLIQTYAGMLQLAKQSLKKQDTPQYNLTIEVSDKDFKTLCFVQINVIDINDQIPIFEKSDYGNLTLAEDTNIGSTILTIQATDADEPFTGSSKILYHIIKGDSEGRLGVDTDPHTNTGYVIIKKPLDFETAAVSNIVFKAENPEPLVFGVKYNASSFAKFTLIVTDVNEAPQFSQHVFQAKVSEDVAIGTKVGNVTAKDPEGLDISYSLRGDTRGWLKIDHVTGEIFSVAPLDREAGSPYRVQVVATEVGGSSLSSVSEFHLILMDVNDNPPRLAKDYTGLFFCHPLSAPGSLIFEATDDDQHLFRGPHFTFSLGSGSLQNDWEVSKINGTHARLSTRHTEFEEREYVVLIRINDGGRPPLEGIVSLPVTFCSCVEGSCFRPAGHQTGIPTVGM

B1: VHO v347 (VHH)
VHH: EVQLLESGGGLVQPGGSLRLSCAASGFTFSTYAMSWVRQAPGKGLEWVSNISGSGGSTYYADSVKGRFTISRDNSKNTLYLQMNSLRAEDTAVYYCAKEQQWVPGFGFDYWGQGTLVTVSS
notes: Variable-heavy-only (VHO) single domain; also called TS00347
B2: VHO v351 (VHH)
VHH: B1 VHH with T31S, G56S, Q100S, W102H, V103S, F106W
notes: Variable-heavy-only (VHO) single domain; also called TS00351
B3: VHO v379 (VHH)
VHH: EVQLLESGGGLVQPGGSLRLSCAASGFTFSSYGMSWVRQAPGKGLEWVSNINQSGSSTYYADSVKGRFTISRDNSKNTLYLQMNSLRAEDTAVYYCAKHSHWAHRVLQSFDYWGQGTLVTVSS
notes: Variable-heavy-only (VHO) single domain; also called TS00379
B4: VHO v342 (VHH)
VHH: EVQLLESGGGLVQPGGSLRLSCAASGFTFSDYWMSWVRQAPGKGLEWVSNISQSGGSTYYADSVKGRFTISRDNSKNTLYLQMNSLRAEDTAVYYCAKDTPGPRWDFDYWGQGTLVTVSS
notes: Variable-heavy-only (VHO) single domain; also called TS00342
B5: VHO v341 (VHH)
VHH: B4 VHH with D31T, N50V, S52N, S54D, G56S, T100E, P101L, G102K, P103S, R104E
notes: Variable-heavy-only (VHO) single domain; also called TS00341
B6: VHO v365 (VHH)
VHH: B4 VHH with S52N, S54D, D99T, T100S, P101D, G102W, P103L, R104L, W105V, D106Q
notes: Variable-heavy-only (VHO) single domain; also called TS00365
B7: VHO v346 (VHH)
VHH: B4 VHH with N50A, S52K, S54D, D99E, P101W, G102E, P103A, R104H
notes: Variable-heavy-only (VHO) single domain; also called TS00346
B8: VHO v372 (VHH)
VHH: EVQLLESGGGLVQPGGSLRLSCAASGFTFSSYWMSWVRQAPGKGLEWVSGINYSGSSTYYADSVKGRFTISRDNSKNTLYLQMNSLRAEDTAVYYCAKWSWLGSDKADFDYWGQGTLVTVSS
notes: Variable-heavy-only (VHO) single domain; also called TS00372
B9: VHO v371 (VHH)
VHH: B8 VHH with S31N, Y53G, S56G, S100H, L102Y, S104Q, D105E, A107K, D108A
notes: Variable-heavy-only (VHO) single domain; also called TS00371
B10: VHO v377 (VHH)
VHH: EVQLLESGGGLVQPGGSLRLSCAASGFTFSDYWMSWVRQAPGKGLEWVSAISGDGSSTYYADSVKGRFTISRDNSKNTLYLQMNSLRAEDTAVYYCAKEDWRPGFDYWGQGTLVTVSS
notes: VHO single domain; also called TS00377
B11: VHO v374 (VHH)
VHH: EVQLLESGGGLVQPGGSLRLSCAASGFTFSTYWMSWVRQAPGKGLEWVSGINQDGSSTYYADSVKGRFTISRDNSKNTLYLQMNSLRAEDTAVYYCAKWHWAGSSQQFDYWGQGTLVTVSS
notes: VHO single domain; also called TS00374
B12: VHO v357 (VHH)
VHH: EVQLLESGGGLVQPGGSLRLSCAASGFTFSDYWMSWVRQAPGKGLEWVSNISSSGSSTYYADSVKGRFTISRDNSKNTLYLQMNSLRAEDTAVYYCAKTSDWLSGKIDEHFDYWGQGTLVTVSS
notes: Variable-heavy-only (VHO) single domain; also called TS00357
B13: VHO v370 (VHH)
VHH: EVQLLESGGGLVQPGGSLRLSCAASGFTFSNYWMSWVRQAPGKGLEWVSNISSDGGSTYYADSVKGRFTISRDNSKNTLYLQMNSLRAEDTAVYYCAKTTTWLTYRQGHGFDYWGQGTLVTVSS
notes: Variable-heavy-only (VHO) single domain; also called TS00370
B14: VHO v369 (VHH)
VHH: B12 VHH with S53G, D101Q, S104A, G105R, K106E, I107R, D108S, E109S, H110E
notes: Variable-heavy-only (VHO) single domain; also called TS00369
B15: VHO v376 (VHH)
VHH: EVQLLESGGGLVQPGGSLRLSCAASGFTFSDYWMSWVRQAPGKGLEWVSGINSSGGSTYYADSVKGRFTISRDNSKNTLYLQMNSLRAEDTAVYYCAKWQFVTQPGHKAFDYWGQGTLVTVSS
notes: Variable-heavy-only (VHO) single domain; also called TS00376
B16: VHO v380 (VHH)
VHH: B15 VHH with D31N, N52S, S53Q, G56S, V102A, T103S, Q104W, P105R, H107D, A109D
notes: Variable-heavy-only (VHO) single domain; also called TS00380
B17: VHO v362 (VHH)
VHH: EVQLLESGGGLVQPGGSLRLSCAASGFTFSDYWMSWVRQAPGKGLEWVSNISSDGGSTYYADSVKGRFTISRDNSKNTLYLQMNSLRAEDTAVYYCAKTTTWLLSQHDKTSFDYWGQGTLVTVSS
notes: Variable-heavy-only (VHO) single domain; also called TS00362
B18: VHO v355 (VHH)
VHH: EVQLLESGGGLVQPGGSLRLSCAASGFTFSDYWMSWVRQAPGKGLEWVSAISGDGSSTYYADSVKGRFTISRDNSKNTLYLQMNSLRAEDTAVYYCAKETWGTYDFDYWGQGTLVTVSS
notes: Variable-heavy-only (VHO) single domain; also called TS00355
B19: VHO v349 (VHH)
VHH: EVQLLESGGGLVQPGGSLRLSCAASGFTFSDYWMHWVRQAPGKGLEWVSAIWSSGGSTYYADSVKGRFTISRDNSKNTLYLQMNSLRAEDTAVYYCAKSPTLYDDFDYWGQGTLVTVSS
notes: Variable-heavy-only (VHO) single domain; also called TS00349
B20: VHO v345 (VHH)
VHH: B18 VHH with D31N, S52K, G53Q, T100E, G102R, T103D
notes: Variable-heavy-only (VHO) single domain; also called TS00345
B21: VHO v343 (VHH)
VHH: B18 VHH with S52K, T100E, G102R, T103P, D105S
notes: Variable-heavy-only (VHO) single domain; also called TS00343
B22: VHO v352 (VHH)
VHH: B19 VHH with D31S, P100K, T101S, Y103H, D104E
notes: Variable-heavy-only (VHO) single domain; also called TS00352
B23: CDH17 v1 (antibody, human IgG1, V domains shown)
VH: EVQLQQSVAELVKPGASVKMSCKVSGYTLTDHTIHWMKQRPEQGLEWIGYIYPRDGITGYNEKFKGKATLTADTSSSTAYMQLNSLTSEDSAVYFCARWGYSYRNYAYYYDYWGQGTTLTVSS
VL: DIVMSQSPSSLAVSVGEKVTMSCKSSQSLLHSSNQKNYLAWYQQKPGQSPKVLIYWASTRESGVPDRFTGSGSGTDFTLTITSVKSEDLAVYYCQQYYSYPWTFGGGTRLEIK
notes: described as human IgG1 monoclonal antibody; also called anti-CDH17 v1
B24: CDH17 v2 (antibody, human IgG1, V domains shown)
VH: QVQLVQSGAEVKKPGSSVKVSCKVSGYTFTDHTIHWMKQRPGQGLEWIGYIYPRDVITQYNEKFKGKVTLTADKSTSTAYMELSSLRSEDTAVYLCARWGYFYGSRSYYFDYWGQGTTVTVSS
VL: B23 VL
notes: described as human IgG1 monoclonal antibody; also called anti-CDH17 v2
B25: CDH17 v3 (antibody, V domains shown)
VH: QVQLQQSDAELVKPGASVKISCKVSGYTFTDHTIHWMKQRPEQGLEWIGYIYPRDVITQYNEKFKGKATLTADKSSSTAYMQLNSLTSEDSAVYLCARWGYFYGSRSYYFDYWGQGTTLTVSS
VL: B23 VL
notes: typical human IgG heavy and light chain bands on SDS-PAGE

One assay addresses T1, human CDH17 on AGS gastric cancer cells …. The experiment in a line: flow cytometry on AGS and AsPC-1 cells. A general note: A flow cytometer gives signals particle by particle.
In the case of B1, the binding result is “binds”.

For the molecule B2, the binding result is listed as “binds”. Take B3: the binding result is given as “binds”. The same measure, in the same setting: as for B4, the entry is “binds”. Regarding B5, the binding result is recorded as “binds”. For B6, the binding result is given as “binds”.

For B7, the binding result is recorded as “binds”.

As to B8, the binding result is “binds”. On the same count and under the same terms, as for B9, the entry is “binds”; as for B10, “binds”. For B11, the binding result is recorded as “binds”.

In the case of B12, the binding result is given as “binds”. As for B13, the binding result is recorded as “binds”. With B14, the binding result is on record as “binds”.

Regarding B15, the binding result is listed as “binds”. Take B16: the binding result is “binds”.

B17: the binding result is on record as “binds”. As to B18, the binding result is “binds”.

As for B19, the binding result was “binds”. Still for that read-out and setting: next, B20: “binds”; B21: “binds”. For the molecule B22, the binding result is reported as “binds”.

Another assay deals with T2, recombinant human CDH17 (R&D systems). Kind of assay: ELISA, plate coated with recombinant human CDH17. The protocol: ELISA-based binding assay was employed to evaluate the binding to CDH17 by anti-CDH17 antibodies. In this assay, 100 μL of […] recombinant human CDH17 (R&D systems) was coated on an ELISA plate. Increasing concentrations of masked and reference mAbs were applied on the plate and their binding to the recombinant human proteins were detected by HRP-conjugated anti-human secondary antibody. […] The expressed anti-CDH17 mAbs had potent binding to CDH17. The anti-CDH17 were tested for binding to AGS gastric cancer cells and AsPC-1 pancreatic cancer cells.
On to B23, for which the binding result was “binds”.

In the case of B24, the binding result was “binds”. Regarding B25, the binding result is on record as “binds”.
